The record followed here is patent WO1994018227A2.

The test concerns the target natural affinity purified heavy chain class I K d molecules. As to the kind of experiment: binding inhibition experiment with radiolabelled ligands.

Turning to Recombinant murine β2-microglobulin, the affinity, fold lower than the human β2-microglobulin turned out to be 5 times lower.
